Data taken from FireProtDB (doi:10.1110/ps.051460505).
Several values for one entry are separate records, joined by “and”; a condition that tells them apart may be missing. Equal values may be shown once.

B1: Gamma-crystallin D, P07320 (parent)
chain: MGKITLYEDRGFQGRHYECSSDHPNLQPYLSRCNSARVDSGCWMLYEQPNYSGLQYFLRRGDYADHQQWMGLSDSVRSCRLIPHSGSHRIRLYEREDYRGQMIEFTEDCSCLQDRFRFNEIHSLNVLEGSWVLYELSNYRGRQYLLMPGDYRRYQDWGATNARVGSLRRVIDFS

Variants of: B1
Details: Homo sapiens; pH 7; 37 °C; GdnHCl; Fluorescence; Sodium phosphate 10 mM; transition: 3; structure 1HK0; whole UniProt chain shown

Row | Variant | ddG of mutation (higher = less stable) | denaturant m value | denaturant midpoint (higher = more stable) | unfolding free energy
1 | M147A | 0 kcal/mol | 3.1 kcal/mol/M | 2.8 M | 8.9 kcal/mol
2 | Q55A Q143A |  | 3.5 kcal/mol/M and 3.1 kcal/mol/M | 1.8 M and 3.1 M | 6.3 kcal/mol and 9.6 kcal/mol
3 | Q143A |  | 3.8 kcal/mol/M and 3 kcal/mol/M | 1.9 M and 3 M | 7.2 kcal/mol and 9 kcal/mol
4 | Q55A |  | 3.8 kcal/mol/M and 3.4 kcal/mol/M | 2 M and 2.9 M | 7.5 kcal/mol and 9.6 kcal/mol
5 | R80A | 1 kcal/mol and 1.3 kcal/mol | 3.4 kcal/mol/M and 2.7 kcal/mol/M | 1.8 M and 2.9 M | 6.7 kcal/mol and 7.6 kcal/mol
6 | R80A M147A |  | 3.2 kcal/mol/M | 1.7 M and 2.8 M | 5.6 kcal/mol and 8.9 kcal/mol
